# Test results from patent US6753317 (US Dept. of Health and Human Services, dated 2004).
# Starred links: 1 amine or outer side, 2 acyl side, 3 side chain; linkers in the order of their positions; H or OH if unused. Non-standard residues stand in square brackets, D forms with d. *: point of attachment. des‑NH2‑α‑pyrrolidine‑1‑yl = Dmt (2',6'-dimethyl-L-tyrosine) with the α-amine replaced by pyrrolidine-1-yl, Cc1cc(O)cc(C)c1C[C@@H](C(=O)*)N1CCCC1; des‑NH2‑α‑piperidine‑1‑yl = Dmt (2',6'-dimethyl-L-tyrosine) with the α-amine replaced by piperidine-1-yl, Cc1cc(O)cc(C)c1C[C@@H](C(=O)*)N1CCCCC1; βTic = 1,2,3,4-tetrahydroisoquinoline-3-yl acetic acid, O=C(C[C@@H]1Cc2ccccc2CN1[*:1])[*:2]; des‑NH2‑α‑pyrrole‑1‑yl = replacement of the α-amino group by a pyrrol-1-yl group; NH(1-Adamantyl) = C1C2CC3CC1CC(N*)(C2)C3; Dmt = Cc1cc(O)cc(C)c1C[C@H](N)C(=O)O; NH‑tetrazole‑5‑yl = n1nc(N*)n[nH]1; Tic = O=C(O)[C@@H]1Cc2ccccc2CN1; dTic = O=C(O)[C@H]1Cc2ccccc2CN1; NHtBu = CC(C)(C)N*
# B1: dermorphin: H-Tyr-D-Ala-Phe-Gly-Tyr-Pro-Ser-NH2 (peptide)
# peptide: H-Y[dA]FGYPS-NH2
# B2: H-Dmt-βTic-OH (peptide)
# peptide: H-[Dmt]-[βTic]-OH
# B3: H-Dmt-Tic-Ala-NH2 (peptide)
# peptide: H-[Dmt]-[Tic]-Ala-NH2
# B4: H-Dmt-Tic-NH-tBu (peptide)
# peptide: H-[Dmt]-[Tic]-NHtBu
# SMILES: Cc1cc(O)cc(C)c1C[C@H](N)C(=O)N1Cc2ccccc2C[C@H]1C(=O)NC(C)(C)C
# B5: [des-NH2-α-pyrrolidine-1-yl]-Dmt-Tic-OH (peptide)
# peptide: {des‑NH2‑α‑pyrrolidine‑1‑yl}-[Dmt]-[Tic]-OH
# B6: N,N(Me)2-Dmt-Tic-NHMe (peptide)
# peptide: {N,N‑dimethyl}-[Dmt]-[Tic]-NHMe
# B7: N,N(Me)2-Dmt-Tic-NH-1-adamantane (peptide)
# peptide: {N,N‑dimethyl}-[Dmt]-[Tic]-{NH(1-Adamantyl)}
# B8: H-Dmt-Tic-Ala-NH-1-adamantane (peptide)
# peptide: H-[Dmt]-[Tic]-Ala-{NH(1-Adamantyl)}
# B9: H-Dmt-Tic-NH-tetrazole-5-yl (peptide)
# peptide: H-[Dmt]-[Tic]-{NH‑tetrazole‑5‑yl}
# B10: H-Dmt-D-Tic-NH-1-adamantane (peptide)
# peptide: H-[Dmt]-[dTic]-{NH(1-Adamantyl)}
# B11: [des-NH2-α-piperidine-1-yl]-Dmt-Tic-OH (peptide)
# peptide: {des‑NH2‑α‑piperidine‑1‑yl}-[Dmt]-[Tic]-OH
# B12: [des-NH2-α-pyrrole-1-yl]-Dmt-Tic-OH (peptide)
# peptide: {des‑NH2‑α‑pyrrole‑1‑yl}-[Dmt]-[Tic]-OH
# B13: H-Dmt-Tic-NHMe (peptide)
# peptide: H-[Dmt]-[Tic]-NHMe
# B14: N,N(Me)2-Dmt-Tic-NH-tBu (peptide)
# peptide: {N,N‑dimethyl}-[Dmt]-[Tic]-NHtBu
# B15: H-(R,S)Dmt-Tic-OH (peptide)
# peptide: H-[Dmt]-[Tic]-OH
# modifications: also: (R,S)-Dmt, racemic, mixture of diastereomers
# B16: N,N(Me)2-Dmt-D-Tic-NH-1-adamantane (peptide)
# peptide: {N,N‑dimethyl}-[Dmt]-[dTic]-{NH(1-Adamantyl)}
# B17: H-Dmt-Tic-NH-1-adamantane (peptide)
# peptide: H-[Dmt]-[Tic]-{NH(1-Adamantyl)}
# SMILES: Cc1cc(O)cc(C)c1C[C@H](N)C(=O)N1Cc2ccccc2C[C@H]1C(=O)NC12CC3CC(CC(C3)C1)C2
# B18: H-Dmt-Tic-Ala-NHMe (peptide)
# peptide: H-[Dmt]-[Tic]-Ala-NHMe
# SMILES: CNC(=O)[C@H](C)NC(=O)[C@@H]1Cc2ccccc2CN1C(=O)[C@@H](N)Cc1c(C)cc(O)cc1C
# B19: H-Dmt-Tic-Ala-NH-tBu (peptide)
# peptide: H-[Dmt]-[Tic]-Ala-NHtBu
# SMILES: Cc1cc(O)cc(C)c1C[C@H](N)C(=O)N1Cc2ccccc2C[C@H]1C(=O)N[C@@H](C)C(=O)NC(C)(C)C
# Biological target: T1, µ-opioid receptor of the guinea pig ileum (GPI) (guinea pig)
# Test: cell-based or functional assay
row,Binder,"IC50 (µ agonist activity, GPI)"
1,B1,0.00182 µM

# Biological target: T1, µ-opioid receptor of the guinea pig …
# Test: cell-based or functional assay
# Remark: another data set of the same source
Binder,GPI ED50,GPI Ke,GPI pA2
B2,> 10 µM,,
B3,4.74 µM,,
B4,1.04 µM,,
B5,> 10 µM,,
B6,> 10 µM,0.39 µM,6.41
B7,0.016 µM,,
B8,1 µM,,
B9,8.2 µM,,
B10,1.68 µM,,
B11,> 10 µM,,
B12,> 10 µM,,
B13,> 10 µM,1.15 µM,5.94
B14,> 10 µM,0.3 µM,
B15,> 10 µM,,
B16,4.48 µM,,
B17,0.036 µM,,
B18,0.29 µM,,
B19,> 10 µM,0.17 µM,6.76
